One substance from patent US20090069547A1, “STABILIZATION OF MAMMALIAN MEMBRANE PROTEINS BY SHORT SURFACTANT PEPTIDES” (Massachusetts Institute of Technology, priority 2007, published 2009) can be followed below.

Data set [1] can be described thus: Critical aggregation concentration (CAC) of surfactants, dynamic light scattering. It is filed as physicochemical. The protocol:
In a further embodiment, the surfactant peptide is added to the mammalian membrane protein at a concentration that is based on the CAC of the surfactant peptide. The CAC of surfactants can be determined experimentally using known dynamic light scattering methods. A minimal amount of sample can be used in this method. Each CAC determination takes a few hours, therefore it is possible to determine the CAC for a large number of peptide detergents in a few weeks. It is known that the lower the CAC, the more hydrophobic the detergents and the stronger the aggregation in water. The CAC for several peptide surfactants in water is shown below in Table 1.
Similar to common surfactants, these peptide surfactants have defined critical aggregation concentrations (CACs) in the sub-millimolar to millimolar range, depending on the hydrophobicity of the tails and the ionic concentration. For example, in water, A6D has a CAC of ≈1.6 mM, and A6K has a CAC of 1.5 mM; however, in phosphate-based saline (PBS) (10 mM sodium phosphate/150 mM NaCl, pH 7.4), A6D has a CAC of 0.25 mM and A6K has a CAC of ≈0.23 mM. This difference is due the charge screening effect in accordance with the Derjaguin-Landau-Verwey-Overbeck (DVLO) theory, which postulates that a critical coagulation concentration of counterions is required to allow assembly and that this concentration will be inversely proportional to the valence of the counterion raised to the sixth power (28). The peptide surfactant supramolecular structure is similar to that of phospholipids; namely, the formation of a polar interface sequesters the hydrophobic tails from water.

Data set [2] deals with T1, GPCR bovine rhodopsin (Bos taurus, UniProt P02699).
T1 construct: Bovine retinae rod outer segment membranes were prepared (40, 41) and urea-stripped (42); tissue J. A. Lawson (Lincoln, Nebr.); host or cells: bovine retinae, rod outer segments
T1 sequence (P02699 whole entry): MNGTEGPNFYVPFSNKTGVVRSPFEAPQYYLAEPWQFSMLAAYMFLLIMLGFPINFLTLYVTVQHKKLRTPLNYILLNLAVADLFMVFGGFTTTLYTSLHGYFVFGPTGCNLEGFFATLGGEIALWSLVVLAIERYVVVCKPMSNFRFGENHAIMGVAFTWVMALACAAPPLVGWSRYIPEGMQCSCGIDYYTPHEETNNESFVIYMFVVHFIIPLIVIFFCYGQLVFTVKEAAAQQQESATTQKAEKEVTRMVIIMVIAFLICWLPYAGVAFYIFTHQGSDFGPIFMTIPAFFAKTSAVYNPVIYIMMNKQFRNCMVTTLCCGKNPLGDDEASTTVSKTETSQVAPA
Kind of data set: Thermal stability of rhodopsin in peptide solution in the presence of surfactant (decay of A500). Format: biochemical. The protocol: Solubilization of Rhodopsin in Different Surfactants. Bovine retinae rod outer segment membranes were prepared (40, 41) and urea-stripped (42). Samples of the membranes containing 1.4 nmol of rhodopsin were solubilized in 0.5 ml of PBS containing 0.5 mM phenylmethylsulfonyl fluoride with 1% DM or 2% (/vol) OG. The suspensions were centrifuged (100,000×g for 15 min), and the supernatants were kept in the dark at 4° C.
Thermal Stability Study of Rhodopsin in Peptide Solution in the Presence of the Surfactant. Rhodopsin solubilized (32-34) in PBS containing 2% (vol/vol) OG was added to the same volume of PBS containing 0, […], 5.0, or 7.5 mM A6D, 1.8% PEG, or 5.4 mM RAD8. In another experiment, rhodopsin solubilized in PBS containing 1% (19.8 mM) DM was added to the same volume of PBS containing 5.0 mM A6D or 0, 5.0, or 19.8 mM DM. A decrease in A500 was recorded every 5 min up to 110 min at 40° C. for the samples containing OG and at 40-55° C. for those containing DM (FIGS. 2 and 3). UV-visible absorption spectroscopy was performed with a Lambda 6 spectrophotometer (Perkin-Elmer, Wellesley, Mass.) equipped with a temperature regulated cuvette holder with a slit width of 2 nm, 480 nm/min scan speed, and a response time of 1 second. The A500 remaining at different time points was expressed as the percentage of absorbance present at the start of the experiment. The half-life of rhodopsin in each solution was calculated by using a single exponential curve fit. The plot obtained from the percentage of absorbance at different time points was fitted to a single exponential curve with two parameters (Eq. 1).
The plot obtained from the A500 values at different time points was directly fitted to a single exponential curve with three parameters (Eq. 2) when the plot from the percentage of absorbance could not be fitted to Eq. 1.
The half-life (t1/2) was calculated using Eq. 3.

For data set [3], the target named is T1, GPCR bovine rhodopsin. Kind of data set: Thermal stability of rhodopsin in peptide solution in the absence of OG (decay of A500). Format: biochemical. The note with it: rhodopsin/lipid/A6D complex without OG, 2.5 mM A6D, 40° C., 50° C., and 55° C. The procedure: Thermal Stability of Rhodopsin in Peptide Solution in the Absence of OG. Rhodopsin solubilized in PBS containing 2% (vol/vol) OG was added to the same volume of PBS containing 2.5 mM A6D. […] Then, 0.5 ml of the mixture was poured into the tube. The tube was covered with 10 kDa of cutoff membrane and dialyzed against 4.5 ml of PBS containing 1.25 mM A6D for 40 h in the dark at 4° C. A resultant sample decrease in A500 was recorded every 5 min for 120 min at 40° C. A decrease in A500 of the predialysis mixture containing 1% OG and 1.25 mM A6D was also monitored as a control (FIG. 4A).

Data set [4] concerns the target T2, delipidated bovine rhodopsin (Bos taurus, UniProt P02699).
T2 construct: Bovine retinae rod outer segment membranes were prepared (40, 41) and urea-stripped (42); tissue J. A. Lawson (Lincoln, Nebr.); host or cells: bovine retinae, rod outer segments
Kind of data set: Thermal stability of delipidated rhodopsin in the absence of phospholipids (decay of A500). Format: biochemical. The following applies: delipidated rhodopsin, 40° C. The protocol: Removal of Phospholipids from Rhodopsin. Samples of the membranes containing 4.7 nmol of rhodopsin were solubilized in 1,000 ul of PBS containing 2% (vol/vol) OG. The suspension was mixed with 250 ul (settled beads, concentration of 50%) of rhodopsin-1D4 Sepharose and rotated for 3 h. The 1D4 Sepharose beads were then packed into a minicolumn (7-mm inner diameter) and washed with PBS containing 1% OG by using 500 bed volumes (total of 62.5 ml). The rhodopsin was then eluted with 1.5 ml of PBS containing 1% OG and the C-terminal nanopeptide.
Thermal Stability Study of Rhodopsin in Peptide Solution in the Absence of Phospholipids. The delipidated rhodopsin solution was added to the same volume of 1% OG in PBS containing 0, 3.75, or 7.5 mM A6D, or 1.8% PEG (FIG. 4B). In another experiment, the delipidated rhodopsin solutions were poured into tubes. Each tube was covered with 10 kDa of cutoff membrane and dialyzed against 4.5 ml of PBS or PBS containing 1.25 mM A6D or 1% OG (FIG. 4C). For all samples, a decrease in A500 was recorded every 5 min, up to 120 min at 40° C.

The test system of a further data set is phycobilisomes. Nature of the data set: Stabilization of phycobilisomes, room temperature fluorescent spectroscopy (666 nm). Format: biochemical, Porphridium Cruentum. The protocol:
Methods: Native phycobilisomes were isolated from Porphridium Cruentum, purified by Martek Biosciences and received in stabilizing buffer (0.75 M PBS, pH ˜7). Peptergents (ac-A6D and ac-A6K—NH2) were used as supplied (CPC Scientific) without further purification. Briefly, phycobilisomes (1 ng/mL) were mixed with peptergent-0.75M PBS solutions (0, 1, 2, 4 and 8 critical aggregation concentrations (CAC)). Phycobilisome-peptide solutions were dialyzed (3400 MWCO) against PBS solutions of various molarity (0.6-0.01M) for 18 h, in the dark. Room temperature fluorescent spectroscopy of these solutions was conducted using an excitation wavelength of 540 nm and emitted fluorescence (550-700 nm) were collected. UV-Vis spectra were obtained to confirm solution concentrations for all acquired fluorescent data.

The target in data set [5] is T1, GPCR bovine rhodopsin. Kind of data set: Thermal stability of rhodopsin in peptide solution in the presence of surfactant (decay of A500). It is filed as biochemical. The following applies: control solution (1.25 mM A6D/1% OG), 50° C.

T2 sequence (P02699 whole entry): as above

Regarding AAAAAAD [A6D], the CAC in data set [1] (in phosphate-based saline (PBS) (10 mM sodium phosphate/150 mM NaCl, pH 7.4)) was 0.25 mM; in data set [1] (in water), roughly 1.6 mM. The “fold increase in stability compared with the stability in OG alone” value is on record as 2.5 fold in the data set with GPCR bovine rhodopsin [2] (2.5 mM A6D/1% OG, rhodopsin/phospholipids, 40° C.); 2.8 fold in data set [4] (1.87 mM A6D in OG); 4.7 fold in data set [4] (3.75 mM A6D in OG). Moreover, in the data set with GPCR bovine rhodopsin [2] (3.75 mM A6D/1% OG, rhodopsin/lipid, 40° C.), the “fold increase in stability of rhodopsin” value is listed as roughly 4 fold. Besides, the Half-life of rhodopsin with GPCR bovine rhodopsin [2] (rhodopsin/lipid, 1.25 mM A6D/1% OG, 40° C.) was 101 min and ≈ 101 min; with GPCR bovine rhodopsin [2] (rhodopsin/lipid, 3.75 mM A6D/1% OG, 40° C.), 277 min and ≈ 277 min; with GPCR bovine rhodopsin [2] (rhodopsin/phospholipids, 2.5 mM A6D/1% OG, 40° C.) it was 173 min and ≈ 173 min; in data set [4] (1.25 mM A6D alone, no OG, no phospholipids), 122 min and ≈ 122 min; in data set [4] (1.87 mM A6D/1% OG), 76 min and ≈ 76 min; in data set [4] (3.75 mM A6D/1% OG), 128 min and ≈ 128 min. Moreover, the Half-life of rhodopsin with GPCR bovine rhodopsin [5] is reported as less than 5 min. For the same substance, the “Thermal stability of rhodopsin” value with GPCR bovine rhodopsin [2] (rhodopsin/phospholipids/DM (9.8 mM) plus 2.5 mM A6D, 50° C.) is “extremely stable with little decay”; with GPCR bovine rhodopsin [3], “very stable at all tested temperatures with little denaturation”. Besides, in data set [4] (A6D alone vs absence of both phospholipids and OG), the “fold increase in stability” value is on record as 2.6 fold. Besides, in the data set on phycobilisomes (666 nm, versus stabilized control), the “Concentration normalized signal strength” value is recorded as “very similar to the stabilized control”. Moreover, in the data set with phycobilisomes (phycobilisomes after buffer change to 0.4M PBS, excitation 540 nm, room temperature), the “666 nm fluorescence intensity” value is 1.3 ×10^5 cps.
